The record followed here is article PMC12751054, “Investigating the conformational landscape of human histidine-rich glycoprotein using amide HDX-MS” (Biochemical Journal, 2025).

Data set [1] concerns the target Histidine-rich glycoprotein (HRG), enzymatically deglycosylated, purified from human pooled plasma (human) (UniProt P04196). The data set is described as follows: mass photometry; HRG at 50 nM in 50 mM Tris-HCl, 140 mM NaCl, 2 mM EDTA, pH 7.4; TwoMP (Refeyn); monomer and dimer.
Data set [2] has the same target. The data set is described as follows: mass photometry; HRG at 200 nM in 50 mM Tris-HCl, 140 mM NaCl, 2 mM EDTA, pH 7.4; TwoMP (Refeyn); monomer and dimer.
Data set [3] concerns the molecule itself. The data set is described as follows: mass photometry; HRG at 50 nM in 50 mM Tris-HCl, 140 mM NaCl, 2 mM EDTA, pH 7.4; TwoMP (Refeyn); monomer and dimer.

Consider “Histidine-rich glycoprotein (HRG), enzymatically deglycosylated, purified from human pooled plasma (from UniProt P04196 19-525) (natural protein)”, for which the stoichiometry N in data set [1] and in data set [2] was 2 in each case.

B1: Histidine-rich glycoprotein (HRG), native (fully glycosylated), purified from human pooled plasma (natural protein, UniProt P04196 19-525, looked up)
chain: VSPTDCSAVEPEAEKALDLINKRRRDGYLFQLLRIADAHLDRVENTTVYYLVLDVQESDCSVLSRKYWNDCEPPDSRRPSEIVIGQCKVIATRHSHESQDLRVIDFNCTTSSVSSALANTKDSPVLIDFFEDTERYRKQANKALEKYKEENDDFASFRVDRIERVARVRGGEGTGYFVDFSVRNCPRHHFPRHPNVFGFCRADLFYDVEALDLESPKNLVINCEVFDPQEHENINGVPPHLGHPFHWGGHERSSTTKPPFKPHGSRDHHHPHKPHEHGPPPPPDERDHSHGPPLPQGPPPLLPMSCSSCQHATFGTNGAQRHSHNNNSSDLHPHKHHSHEQHPHGHHPHAHHPHEHDTHRQHPHGHHPHGHHPHGHHPHGHHPHGHHPHCHDFQDYGPCDPPPHNQGHCCHGHGPPPGHLRRRGPGKGPRPFHCRQIGSVYRLPPLRKGEVLPLPEANFPSFPLPHHKHPLKPDNQPFPQSVSESCPGKFKSGFPQVSMFFTHTFPK
modifications: N-linked glycans at Asn63, Asn125, Asn202 and Asn344; O-linked glycans at Thr273 and Thr274
notes: Histidine-rich glycoprotein, human, UniProt P04196; printed residue numbers run to 525; Pooled plasma; also called native HRG; plasma-derived human HRG
Regarding B1, in data set [3], the “stoichiometry N” value is 2.

By stoichiometry N is commonly meant a count of units in the complex or per binding partner.
